In the DeepSol protein solubility set:

Experiment: soluble on expression in E. coli; label from the status in PepcDB or PDB records

| Sequence | soluble on expression in E. coli |
| --- | --- |
| MSELIIYNGKVYTEDGKIDNGYIHVKDGQIVAIGEVDDKAAIDNDTTNKIQVIDAKGHHVLPGFIDIHIHGGYGQDAMDGSYDGLKYLSENLLSEGTTSYLATTMTQSTDKIDNALTNIAKYEAEQDVHNAAEIVGIHLEGPFISENKVGAQHPQYVVRPFIDKIKHFQETANGLIKIMTFAPEVEGAKEALETYKDDIIFSIGHTVATYEEAVEAVERGAKHVTHLYNAATPFQHREPGVFGAAWLNDALHTEMIVDGTHSHPASVAIAYRMKGNERFYLITDAMRAKGMPEGEYDLGGQKVTVQSQQARLANGALAGSILKMNHGLRNLISFTGDTLDHLWRVTSLNQAIALGIDDRKGSIKVNKDADLVILDDDMNVKSTIKQGKVHTFS | not soluble |
| MSENLHTIIHHVDFFPLRIRVFRNGDMFDHGRILVVTRKQFKHWIVFLDALTDLLRTATAVRRLFTTQGIPVHHFDDLETNGEYVAVETGPFVNVPYGQARFTLRLKRYNPIIRAPELIPTFLHSAESMDIYLKKEGYGTITGLPYPFDGILSRSPSASNIQIKHLQSHHIPPLKIGGSMEHLNELGTASWLGKNEKWMMGERVKLETQSQTLAQKSEKDEQIPRLDIKEVDGGSTTSEFMRNGEKSKSTTKLPRLLNSNRSFRREPVSAQKPPSEEPRSTSENLPPIDLKSIQISQNSQSTSQKKDSDTISIKTEEEVISILKPEKTTTESIVSSKISRKNAPKDDDEVRFHRSYQVTETTYTTRNSDETDRRKPENVEKTVESKNDRSVQDKSEKIEKKVPEKLSKPQKTETTKSKERAKWADQGNTTLKREKSIEKSTRQGKIDKSIEKLIDKSIDNTEKLSSQKPKIDMAKGELRKFDVDINEIPIRFEGPMVNKSRINTSRIVTSRSTTNLFVDEIVNEDELDDVIERAQLWDLNRRRQNMRQQHTQTSGSLCRSISAPRRRVVLFDPDFD | not soluble |
| MSEPPPPHSAPVPMVKTDFFAFSGPYLPEDAHGTSSPPEKQQQTRKRGRPTALELLTTRVEELEKENSSLRTFRTAAESRCRALESKQSELFQTVEQLKVVVAKLTNECSARVTSNLPAPRLFADVLKGQSAEKKAEIIAERREAAASISLFEKKTHFAVIENLPDDGSDSQSAKDKVFLDNLIAANPSLPVHIQTFRVKTRKPVLSRPTKIRFSSEADRNSFIFSFSKTLRSLPDRPTNLPRPIRCRRDMTNDVIYPERVES | not soluble |
| MSEREHWQRVYESKPSDAVSWFQAEATLSLDLIRRIGAPREAAIIDVGGGASTLVDGLLAEGFGDLTVLDLSDAALRVARNRLGARGEEVRWIAGDITGVDLPEATYDVWHDRAVFHFLTTAEARRAYVRQVMKAVRHGGHVIVATFAADGPTECSGLPVMRYDADELHAEFGSAFQLTEHRDEHHVTPAGRVQHFVYCHCLKRLLEHHHHHH | not soluble |
| MSERILPSTLRGVTNGQKEVTASVGERVPLLPRRFSARPQGNQEAQERTAVKCEQVRYAIQEVIGRGAFGEVSSAEVVGTRDLVAIKRVIHDGRLRQRELTLMRDHLGPNTQQGGVSSLDVGNGVGAHATSVTGSNGEEANGTTAIDGLESWNMPTIVPYHPCVVKLLDHFFASDPSGVQYLFMVMDYIPLDVRRLHHMFLRQREQQMPIILVKVIMFQLARALAFLHARGICHRDVKPNNILVDQETGVVKLCDFGSAKKMQAVGGEGPREKNVPYIFSRYYRAPELLLGSQYYHFHVDMWAFGCVLAELLCGKVLFKGSSSTMDQLVEIIKVLGKPSERELFALNPQSAGSALIRTWGDSHNASQLSPTPSGPLPSSNSANADYMQRRSAPRVKSLLWVEVLPPNTSQAALSLIEQLLRYTPEERLTSAEVLEHVFFDELFSDDARLPNGAPLPASMFQVTREEAEILPPWLLERMAAAEGVAKGRELNQSATAPENAI | not soluble |
| MSESAFSNRIVQSLLDTDFYKLTMMQAVLHNYPNVDVEWEFRCRNGEDLRPYLGEIQHQIELLCELSLSPEHLVFLERITFMKPDFLRFLGLFRFNTRYVKTSIENDELCIRLHGPWLHVILFEVPLLAIVSEVRNRHRYPDTLLSQARDRLYDKFEWLTVNATPDELAELKVADFGTRRRFSYRVQEEVLNVLKLDFPGQLVGTSNVHLARQLDLKPLGTMAHEWIMAHQQLGPRLIDSQIAALDCWVREYRGLLGIALTDCITTDAFLNDFDLYFAKLFDGLRHDSGDPVKWAEKCISHYQKLGIDPMSKTLVFSDGLNLPKALDIFRALRGRINVSFGIGTNLTADIPGIAPMNMVLKMTACAGQAVAKISDESGKTQCKDPNFVAYLRHVFKVPDLPSPAKPALEHHHHHH | not soluble |
| MSETIEIDELVFSVKRSTRRRTVGVTVERDKSLVAHLPQGVALDVATRLIASKLLWVHQKLAEHGETARDDVFRIPEFVDGEGFHLLGKHYRLKLVDVPKNVTGVPSVRFEGDRILLRREQAASGGKRIEEYYTRAAHPYLNETVQRWKRIVGVEPGRFVQVMDLGYRWGSCSEDGTLNFHWRTMQLPPRIIEYVVVHELVHIKVPNHSEKFWKMIGSVMPDYESRKAWLKQKGGEL | soluble |
| MSFELPALPFAKDALEPHISAETLDYHHGKHHNTYVVKLNGLIPGTEFEGKTLEEIIKTSTGGVFNNAAQIWNHTFYWNCLAPNAGGQPTGAVAAAIDAAFGSFEEFKAKFTDSAINNFGSSWTWLVKNADGSLAIVNTSNAATPLTDEGVTPLLTVDLWEHAYYIDFRNVRPDYMGAFWSLVNWSFVEENLAK | soluble |
| MSFLNNDFGSPPATSSPPTTMPKLPTIQDMLNNIGASTVNLMQPNPYLMQNQIPLPVPNLPLNPFLHLNPAISQEIIQQFIAMSFNTPNVLASIANMGDDEGPSCNPKMRRGDLLKSVSMDSTEDPPSITLDNNGDMIVPNNDKEGWCRNKKYIEQTENGYMCTVCRKVYGRYNSVSYHVTIYHRNPPIKCNVPNCQFTTREARYIHFHKNYRHGIPLPESIDQGSRKCPHCRHVSKSPAMLEKHIRRHQIKDGLSNINEAIRERTSTICDEAMEIEPAETEVDPIETKPRSCTL | not soluble |
| MSFRGTVKWFSKDKGYGFITREDTNADVFVHFTDIQMEGFKTLQKGQKVEFDVVEDTKGPRAKNVRVLGE | soluble |
| MSFSLEMPQMLPAPRDCYAVPGKPGHSEPLTVVGWEHMDLKLFYPSALFSSWSIRTALYPLAVLRSQLQLQKQNTVYRSTFHAYSDISKREGFRGLYRGFWITVPQIGCSFIYSTIFEKCRAVLHEQGIQSVGGVAAVAGGLASFATQSIFVPTDIIAQYMMIYKNTDKLTAGHDKSVIDGVRNHVKNGSGLGTSVIKAIYKTDGILGFYRGFWASTAVYVPQMLTFWPSYYWMLGLFNKVPYRTLHPATNRSLLFDQAVAATLGGVISTVATNPMELFRVRLQVHRGSYSKTLETMLRDEKTAVFTKGLTPRIIANSMYSGLVVVGYEIVKRLCAKEEYKHRVKW | not soluble |
| MSGAESYRHITVLLNEAVDALAVREDGVYVDGTFGRGGHSRLILSRLGDAGRLIVFDKDPQAIAVAEELARSDKRVGVVHGGFASFQTALDGLGIGKVDGALFDLGISSPQIDDGSRGFSFRFDAPLDMRMDTTRGMSAAEWIAVASEQDLHEVIKNYGEERFSRQIARAIVAQRAESPIDTTRKLAQIVAQNVRTRERGQDPATRTFQAIRIFINRELEEVGAVLPQVMCRLKEGGRLAVIAFHSLEDRIVKQFVKKYSQHAPLPRWAAVREADLPEPPLKIAGRALKPGEAEIAANPRARSAVLRVAERTAGPIPEQSQRKTSEWQLEHHHHHH | not soluble |
| MSGATEMAVSPDGKEVAFILRGDVYVTSVEYKTTKQVTNTPCQERGIDFAPDGRTLVYASERGGLWQLYTSTIVRKDEKQFTYATELKEERLTNSDIASFNPKYSPDGKEIAFLENRTAIRVINLKTKKVRTVMDAQYQYSYSDGDQWFEWSPDSKWILSEFIGIGGWNNKDIVLLNADGKGEMHNLTESGYSDGNAKWVLGGKAMVWFSDRAGYRSHGSWGAQYDAYIMFFDVDALEHHHHHH | not soluble |
| MSGCPFAGNSVGYTLKNVSMEDNEEDRAQTGVNRASKGGLIYGNYLQLEKILNAQELQSEVKGNKIHDEHLFIITHQAYELWFKQILWELDSVREIFQNGHVRDERNMLKVIARMHRVVVIFKLLVQQFSVLETMTALDFNDFREYLSPASGFQSLQFRLLENKIGVLQSLRVPYNRKHYRDNFGGDYNELLLKSEQEQTLLQLVEAWLERTPGLEPNGFNFWGKFEKNILKGLEEEFLRIQAKTDSEEKEEQMAEFRKQKEVLLCLFDEKRHDYLLSKGERRLSYRALQGALMIYFYREEPRFQVPFQLLTSLMDIDTLMTKWRYNHVCMVHRMLGTKAGTGGSSGYHYLRSTVSDRYKVFVDLFNLSTYLVPRHWVPKMNPIIHKFLYTAEYSDSSYFSSDESD | soluble |
